Test results as given in the DeepSol protein solubility set.

Test: soluble on expression in E. coli; label from the status in PepcDB or PDB records
With “MGSDKIHHHHHHAVNCYVGNYYRADSIAEAAIDSDREVAVTIEKKDKRIQATQYDLKLKNYTITFAPQDKEKATKALIFYPGGRVQYTAYAPLMHELAKNNFVCILVHMPGNLAVLDQNAADGIIEKYKEIYPSIQEWYMGGHSLGGAMAAEYVAKHVDEFDGLYLFAAYSTADLSDSDLRVFSVYGSEDGVLDMDKYRKYRSNLPEDTYEYVIDGGCHSYFGSYGLQKGDGTPDVAFEEQIEMTVDFITYNSK” the “soluble on expression in E. coli” value was “not soluble”. In the case of “MGSDKIHHHHHHAVTTGNTPVTAEFAGGTLPDGNGVPNTVDPDPTKPNSNFDLLFIPREYDFGKLSISDDLTKPIPNKTDEGRAGNVESVGVGDIRGSKEGWHVTAQSTGMKLGEESLEGSITTGAMFLYPLIYNEETKTYDYQSADLADPVTKPETVDTTAFSIALGGDAVLLANATAGKGQGLWQFSFRPYLNITTPAYNIKAGAYTGNITWNLVAGPSI”, the “soluble on expression in E. coli” value is reported as “not soluble”. With “MGSDKIHHHHHHCKDDDTLLRGSGITEQSWSTNQTYFASAEQTLTFTFTTLSSWTAQNSSTALLSLDNTAGNSGENTIKVTVHKSSQEQGTITIKVNGYSSASNIKIQLSDDDVQGYEINYSVDQYLREKYLWNDDYKLLTPNFRQAYDEFLRNTLLSMTTNTLDKKRNSNGTYSLFSFIQKLDPDLQTSRSAKEKKTLEYNYGFVNFIAVGNRNNSNYGLVIQGVHKGSSADKEGLKRGMEITEIDNQRITTTNVQACYSKLIKPSSPTSIKVKDKDGKVYTINSGPIYANPIIHHQVNEKIGYLVYSAFESGFDQELFDVFKEFKSQNITELILDLRYNGGGDVTSANLISSCIAGDLCIDKTFASYRYNDERMKVLGNQRPIQKFAYSQYDNLSTSLSAGGLNLRKIYCLVTDDSASASELVINALRGIDIEVILIGTTTHGKNVGMEGVELTAGTDKYLLFPITFQAYNAKGFGDFENGFTPDYEINENKPNGEYFEGYGDFGAESDPLYAKAISLISGNEVTTPTRAVNQAKEQMLVIATPRLNRIGMIK” the “soluble on expression in E. coli” value was “not soluble”. For “MGSDKIHHHHHHCKPAARSVITESSLIFTSIHSSYVISTYYKRCVVLSQRKEAVQNMNVYQLKEELIEYAKSIGVDKIGFTTADTFDSLKDRLILQESLGYLSGFEEPDIEKRVTPKLLLPKAKSIVAIALAYPSRMKDAPRSTRTERRGIFCRASWGKDYHDVLREKLDLLEDFLKSKHEDIRTKSMVDTGELSDRAVAERAGIGFSAKNCMITTPEYGSYVYLAEMITNIPFEPDVPIEDMCGSCTKCLDACPTGALVNPGQLNAQRCISFLTQTKGFLPDEFRTKIGNRLYGCDTCQTVCPLNKGKDFHLHPEMEPDPEIAKPLLKPLLAISNREFKEKFGHVSGSWRGKKPIQRNAILALAHFKDASALPELTELMHKDPRPVIRGTAAWAIGKIGDPAYAEELEKALEKEKDEEAKLEIEKGIELLKASGMTKQGLS”, the “soluble on expression in E. coli” value was “not soluble”. For “MGSDKIHHHHHHCSDDDSVNEWDMSYVSLLPADYLRPTPSFTLKHVEEEGIEGSVEFQFMATTQKAVTQDINVHYSVTCDGIDANKINLSAKNLLIKAGSTASEPITLSITDWKYLENTKEALEYTLKIKIADIESTSAEVTNAAYYQEIVLKISKTAEKKKESVLLTNVKDWIFTFMTGVENSASNSVAGTGTNDVATNGVPFWLTVDFKEVKNVTGVQTTHWGAGYAPSKVEIFSSENGDDWVSIGQWDTKGRTQTITFDERVKTRYLKYQMITVPSRVDITRFYIYAW”, the “soluble on expression in E. coli” value was “not soluble”. With “MGSDKIHHHHHHDGKFTLGAGVGVVEHPYKQYDADVYPVPVISYESENFWFHGLGGGYYLWNDTNDKLSITAYWSPMYFKPGDSDSEQMRRLDKRKSTVMAGLSYVHNTPYGFLRTTIAGDTLDNSNGINWDLAWLYRYTNGNLTLTPGIGVEWNSDNQNEYYYGVSRHESRRSGMRSYDPDSSWNPYLELSANYRFLGDWSVYGVARYTRLSDEITDSPMVDKSWSGLISTGITYTF” the “soluble on expression in E. coli” value was “not soluble”. With “MGSDKIHHHHHHDGMGLSQVYLTSMLEGRPLSFMKTPYIGLVKTHSANSWVTDSAAAGTALASGFKTNNGMINILPDGTVVPTIFEVAKTYGVRTGIVVTCRVTHATPAAFYAHVKSRDEENEIARQLVENETVDVVMGGGWANFLPKDLGGKRDDNLNLIELAKEKGYIYVKTREELSKISADSDKILALFAPSHLDPASSRKEQPMLYEMVEKALEILSKDDEPFFLMVEGSQIDWEAHDNDIYGVWKEVVEFDKAVQVALDFALKRGDTLVIVTADHETGGLGLSSGDYRVDVDKIRNFKKTTDWIMANYSPKDREKFKKAIEEYFGLTLSDEDLNRISMSKNPKIELGRILGEKVSVGWTTTTHSGTPVPIFAFGPGAENFTGFLDNTEIPRIIMKLTGYSLQYPLLKEPVTK” the “soluble on expression in E. coli” value was “not soluble”. For “MGSDKIHHHHHHDNDWVDQSRNPDVIAPDAYASFSINIPHASKTRAVSTDPGIAAENTVKSLHVFIYDAESPNTPTVAEFTVAGGTLTQKPAGSSTWMTSQPISTKKTDKYIFAGVNLNAEIVNYITSNGLGAFSYKDFTQEITKLADQTNGFVMFNSAYPTLTPAADLYEKKSEAENNHITISVNRVTAKAAVFQSQSFVVNGGGTMTDLKFGWRNLNKKFYFIQDNRDALIKDYNWANYTAEDFTRGTDAINVYASADVPTSFSYATENAFQYISGTSNVDAATFISVSGVFTPTNIISAKKNPPTVAADFEIIVNPKPVDKTFFVVRTADGVANYFIDGPTAEKFAELCAANTPQMPSINGIYLLSENTYSNGLCYYHIFVNGDAVTPQAPYNIYRNQYFKININSIQAPGNPSDNFDRGEPIKPNSWIGVDIQIIPWEVIEEDHDL”, the “soluble on expression in E. coli” value was “not soluble”. In the case of “MGSDKIHHHHHHDWLDLNTTSSVETGQAIVTLDDAQIALNGIYRLASGHSYYGDNYWYYGDCRAADVQARITKGDGKRVSPYYEYNVLASDNLNIVLPWNTVYKVIRQTNNLIQKIESGSIQSSDTKELNRIKSEALVMRGLSLFNLTRLFGMPYTNDKGASLGVPIETSPSDPTHKPSRSTVAQCYEQVVSDMSNALSGLRQETSNGYINYWAAQALLSRVYLNMGEYQKAYDAATDVIKNNGGRYQLYSYEEYPNVWGQDFQSESLFELYITLSEPSGGTGGEGAPMVYANEATVDWNNLILSEDFLNLLNEDPKDVRHCLTKESVIENNTGLPAAAMHEKVYLAKFPGKTGDDPKTNNICIIRLSEVYLNAAEAGLKKGTDIEEAQGYLNDIISRRTTDTSQQVSTETFTLDRILKERRKELVGEGEVFYDYLRNGLAIERKGSWHLETLKASNAQKIEATDLRIALPIPQSEIDANPNIQQNPR”, the “soluble on expression in E. coli” value is reported as “not soluble”. With “MGSDKIHHHHHHEEMEKGFDPKRYARELWFKLQDMMNEGLGYDAVEVLNTLDENPELAHQKFAKVVGVSNYRYYIIQGVGEIVEIKDDGILVKVRENRKVPDLFLSNHIFGNGIVNATGIAKMEDFDRIIDFNLTATELNKIVKEEVVNSFLKQLSKGAGSVGSLVRFIAVFTLLKDEEIKYPIEAIPLYLEIQGGF” the “soluble on expression in E. coli” value was “soluble”. For “MGSDKIHHHHHHETQPESAAFTAPSTDNPIRINFNENPLGMSPKAQAAARDAVVKANRYAKNEILMLGNKLAAHHQVEAPSILLTAGSSEGIRAAIEAYASLEAQLVIPELTYGDGEHFAKIAGMKVTKVKMLDNWAFDIEGLKAAVAAYSGPSIVYLVNPNNPTGTITPADVIEPWIASKPANTMFIVDEAYAEFVNDPRFRSISPMITQGAENIILLKTFSKIHAMAGMRVGYAVAHPTVIALMGRYVAGEKINFSGVDAALASMNDSAFITYSKKSNDVSRQILLKALEDLKLPYLPSEGNFVFHQLVVPLKDYQTHMADAGVLIGRAFPPADNWCRISLGTPQEMQWVADTMREFRKKSWI”, the “soluble on expression in E. coli” value was “not soluble”. With “MGSDKIHHHHHHGADVETPSVSISVSPENPKVGEEVTVTINTDAQYLTLFTGDEGKNFERSRIKAIMEHDWDSFYEECYRVSYAKNGEKTLFYKYFKDYQSIEDVKKDFEFFGAIDNIQLVPYKKGDFPEALMEMSYIGTNQLKFTVTDRRIPSGIRMKPNIHIFGGLANQPGNTIIESRFVACDADRAIRKYSNDAWVAAYFGLHTEQLEDFQGYSAGYKYYTFQDERSYGAFQTNDPLSRRPTEGFYKLGDMYNRDTYLQPFLDHGEKIILRQVDMYVNGRSTFVAADDSPYKYDLDGDGVLESYECELDPATGLPVHEADYTKYKGFQGDVYLSFIEMGTDEYEPWNTGVSLGSVYTTGGIQKTYKYIYTGAGDFTITAVATNVGDKDYKGIDYSEERSNSLDDYSHKRALSSVKVSVKP” the “soluble on expression in E. coli” value was “not soluble”. In the case of “MGSDKIHHHHHHGCKEKDMSMKMNEPHNIKGVISYKRSFGDLNDTHLSVAKKIGIRPLASRSEAEGLGGKLVQIKPCERYAMDSLTHSIPFLIPQASALLDTIGANFLDSLSCKGLNPNQIIVTSVLRTADDVKRLRRRNGNASANSAHAFGTTFDVSYRRFCKVEDPDGRPMQDVSPDTLKLVLAEVLRDLRKSDKCYIKYELKQGCFHITAR”, the “soluble on expression in E. coli” value is reported as “not soluble”.
